Experimental data: patent US20220411531A1 (SUMGEN MAB BEIJING BIOTECH, published 2022)
Changes are numbered by the printed parent chain. Each block holds one binder with its values, some of them ahead of it.

Key:
[1] = molecular target: T1, AXL on the surfaces of human tumour cells (A549, MDA-MB-231, 786-O) (human, UniProt P30530 27-894); test: flow cytometry on MDA-MB-231 cells (second experiment, FIG. 9); MDA-MB-231 cells; FIG. 9
T1 construct: Endogenous AXL on human tumour cell lines; The tie to the cell-line protein rests on this general definition only; also called cell surface antigen
T1 sequence: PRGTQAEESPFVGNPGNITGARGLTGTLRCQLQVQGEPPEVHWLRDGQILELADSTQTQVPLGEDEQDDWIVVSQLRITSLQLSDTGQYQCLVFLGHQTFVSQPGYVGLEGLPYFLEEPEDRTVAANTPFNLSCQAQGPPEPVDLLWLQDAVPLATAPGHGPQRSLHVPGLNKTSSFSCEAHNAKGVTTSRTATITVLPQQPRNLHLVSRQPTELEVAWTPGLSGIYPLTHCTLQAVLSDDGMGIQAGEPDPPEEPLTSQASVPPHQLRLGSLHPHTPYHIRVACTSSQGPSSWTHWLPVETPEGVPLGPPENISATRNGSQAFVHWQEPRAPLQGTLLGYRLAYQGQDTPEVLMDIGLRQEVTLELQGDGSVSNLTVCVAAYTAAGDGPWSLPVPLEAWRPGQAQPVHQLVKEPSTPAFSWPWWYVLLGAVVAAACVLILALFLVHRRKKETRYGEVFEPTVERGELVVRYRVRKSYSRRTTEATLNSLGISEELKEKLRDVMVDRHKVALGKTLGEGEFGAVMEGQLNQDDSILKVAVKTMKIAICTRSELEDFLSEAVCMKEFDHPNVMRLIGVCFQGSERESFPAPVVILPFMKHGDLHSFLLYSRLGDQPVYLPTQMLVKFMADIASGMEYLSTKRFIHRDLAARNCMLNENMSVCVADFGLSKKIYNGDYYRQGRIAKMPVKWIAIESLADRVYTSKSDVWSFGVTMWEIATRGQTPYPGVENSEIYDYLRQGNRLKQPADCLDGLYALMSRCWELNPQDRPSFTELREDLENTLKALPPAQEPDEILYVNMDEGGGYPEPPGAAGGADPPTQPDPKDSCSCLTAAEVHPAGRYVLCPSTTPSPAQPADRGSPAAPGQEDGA
Experimental: (§1) Cells in a logarithmic growth phase were collected; the cell density was regulated to 5×10⁶ cells/mL; and pre-cooling was performed on ice. The antibodies 6G12M11, 6G12M21, 6G12M31, and 6G12M41 were diluted to 20 μg/ml with pre-cooled normal saline containing 2% FBS. 100 μl of cells were taken, and an equal volume of each of the foregoing diluted antibodies was added to the cells to react for 30 minutes at 4° C. in the dark. After the completion of reaction, the cells were washed twice with pre-cooled physiological saline containing 2% FBS (6000 rpm, 45 s). The secondary antibody PE Mouse Anti-Human IgG (BD Pharmingen) was diluted at 1:5 with pre-cooled physiological saline containing 2% FBS, and 100 μL of the secondary antibody was taken for resuspending the cells, with a reaction conducted for 30 minutes at 4° C. in the dark. After the reaction, the cells were washed twice with pre-cooled physiological saline containing 2% FBS (6000 rpm, 45 s). The cells were resuspended by using 400 μl of 1% paraformaldehyde. The binding of antibodies to cell surface antigens was analyzed by means of a flow cytometer (BD Calibur).

[2] = molecular target: T1, AXL on the surfaces of human tumour …; test: flow cytometry on 786-O cells (second experiment, FIG. 10); 786-O cells; FIG. 10
Experimental: as §1

[3] = molecular target: T1, AXL on the surfaces of human tumour …; test: flow cytometry on A549 cells
Experimental: as §1

[4] = molecular target: T1, AXL on the surfaces of human tumour …; test: flow cytometry on MDA-MB-231 cells
Experimental: as §1

[5] = molecular target: T1, AXL on the surfaces of human tumour …; test: flow cytometry on 786-O cells
Experimental: as §1

[6] = molecular target: T1, AXL on the surfaces of human tumour …; test: flow cytometry on MDA-MB-231 cells (second experiment, FIG. 9); MDA-MB-231 cells; second experiment, FIG. 9
Experimental: as §1

[7] = molecular target: T1, AXL on the surfaces of human tumour …; test: flow cytometry on 786-O cells (second experiment, FIG. 10); 786-O cells; second experiment, FIG. 10
Experimental: as §1

B1: antibody 6G12M31 (antibody, V domains shown)
VH: QVQLVQSGPGLVKPSQSLSLTCSVTGFSISSGYYWNWIRQFPGQKLEWMGYRSYDGSNNYDPSLKNRISITRDTSKNQFFLKLNSVTSEDTATYYCARGWLLHYTMDYWGQGTTVTVSS
VL: DIVMTQSPSSVSVTLGQSASISCRSSRSLLHSNGFTYLYWYLQKPGQSPQLLIYQMSNLASGVPDRFSGSGSGTDFTLKISRVEAEDVGVYYCGQNLELPLTFGGGTKLEIK
EC50 [1]: 0.6 µg/mL | EC50 [2]: 0.53 µg/mL

B2: antibody 6G12M11 (antibody, human IgG1, kappa, V domains shown)
VH: B1 VH with S23A, D61N
VL: EIVMTQSPSSVSVTLGQSASISCRSSRSLLHSNGFTYLYWYLQKPGQSPQLLIYQMSNLASGVPDRFSGSGSGTDFTLKISRVEAEDVGVYYCGQNLELPLTFGGGTKLEIKR
EC50 [3]: 0.46 µg/mL | EC50 [4]: 0.59 µg/mL | EC50 [5]: 0.43 µg/mL

Now from value to binder:

EC50 [6]: 0.64 µg/mL | EC50 [3]: 0.78 µg/mL | EC50 [7]: 0.4 µg/mL | EC50 [4]: 0.39 µg/mL | EC50 [5]: 0.31 µg/mL
B3: antibody 6G12M21 (antibody, human IgG1, kappa, V domains shown)
VH: B1 VH with D61N
VL: B2 VL with E1D

EC50 [1]: 0.54 µg/mL | EC50 [2]: 0.47 µg/mL
B4: antibody 6G12M41 (antibody, V domains shown)
VH: B1 VH with D61G
VL: B1 VL
